Patent publication US20070066682A1, “Arylalkylamine vanadium (V) salts for the treatment and/or prevention of Diabetes mellitus” (priority 2005, published 2007)

Key:
Format in all cases: biochemical
[1] = substrate: NCCCc1ccccc1; assay: Kinetic parameters, mouse SSAO/VAP-1; details: other: Mouse SSAO/VAP-1
Description: (§1) The continuous spectrophotometric detection of SSAO-dependent H2O2 production based on a peroxidase-coupled reaction was performed as previously described by Abella et al. (2004, Diabetologia 47: 429-438) and following the procedure described by Holt et al., (1997, Anal. Biochem. 244: 384-392).
(§2) Compounds listed in Table 1 were prepared according to the methods described above, purity was determined by HPLC at 220 nm, molecular weight calculated by mass spectrometer. Human and mouse SSAO activity was determined by detecting the production of hydrogene peroxide in the presence of the different compounds present at 1 mM for human and 100 μM for mice activity measurements. Compounds in Table 2″ were similarly assayed. Values are means of percentages relative to benzylamine-related hydrogen production. Kinetic Parameters for select compounds are set forth in Table 3 (Mouse SSAO) and Table 4 (Human SSAO).

[2] = substrate: NCc1ccc(F)cc1; assay: Kinetic parameters, mouse SSAO/VAP-1; details: other: Mouse SSAO/VAP-1
Description: as §1, §2

[3] = substrate: NCCc1ccccc1; assay: Kinetic parameters, mouse SSAO/VAP-1; details: other: Mouse SSAO/VAP-1
Description: as §1, §2

[4] = substrate: NCCc1ccc(F)cc1; assay: Kinetic parameters, mouse SSAO/VAP-1; details: other: Mouse SSAO/VAP-1
Description: as §1, §2

[5] = substrate: NCCCCc1ccccc1; assay: Kinetic parameters, mouse SSAO/VAP-1; details: other: Mouse SSAO/VAP-1
Description: as §1, §2

[6] = substrate: NCc1ccccc1; assay: Kinetic parameters, mouse SSAO/VAP-1; details: other: Mouse SSAO/VAP-1
Description: as §1, §2

[7] = substrate: NCCCc1ccccc1; assay: Kinetic parameters, human SSAO/VAP-1; details: other: Human SSAO/VAP-1
Description: as §1, §2

[8] = substrate: NCc1ccc(F)cc1; assay: Kinetic parameters, human SSAO/VAP-1; details: other: Human SSAO/VAP-1
Description: as §1, §2

[9] = substrate: NCCc1ccccc1; assay: Kinetic parameters, human SSAO/VAP-1; details: other: Human SSAO/VAP-1
Description: as §1, §2

[10] = substrate: NCCc1ccc(F)cc1; assay: Kinetic parameters, human SSAO/VAP-1; details: other: Human SSAO/VAP-1
Description: as §1, §2

[11] = substrate: NCCCCc1ccccc1; assay: Kinetic parameters, human SSAO/VAP-1; details: other: Human SSAO/VAP-1
Description: as §1, §2

[12] = substrate: NCc1ccccc1; assay: Kinetic parameters, human SSAO/VAP-1; details: other: Human SSAO/VAP-1
Description: as §1, §2

B1: Mouse SSAO/VAP-1 (Mus musculus) (protein)
chain: MTQKTTLVLLALAVITIFALVCVLLAGRSGDGGGLSQPLHCPSVLPSVQPRTHPSQSQPFADLSPEELTAVMSFLTKHLGPGLVDAAQARPSDNCVFSVELQLPAKAAALAHLDRGGPPPVREALAIIFFGGQPKPNVSELVVGPLPHPSYMRDVTVERHGGPLPYYRRPVLDREYQDIEEMIFHRELPQASGLLHHCCFYKHQGQNLLTMTTAPRGLQSGDRATWFGLYYNLSGAGFYPHPIGLELLIDHKALDPALWTIQKVFYQGRYYESLTQLEDQFEAGLVNVVLVPNNGTGGSWSLKSSVPPGPAPPLQFHPQGPRFSVQGSQVSSSLWAFSFGLGAFSGPRIFDIRFQGERVAYEISVQEAIALYGGNSPASMSTCYVDGSFGIGKYSTPLIRGVDCPYLATYVDWHFLLESQAPKTLRDAFCVFEQNQGLPLRRHHSDFYSHYFGGVVGTVLVVRSVSTLLNYDYIWDMVFHPNGAIEVKFHATGYISSAFFFGAGEKFGNRVGAHTLGTVHTHSAHFKVDLDVAGLKNWAWAEDMAFVPTIVPWQPEYQMQRLQVTRKLLETEEEAAFPLGGATPRYLYLASNHSNKWGHRRGYRIQILSFAGKPLPQESPIEKAFTWGRYHLAVTQRKEEEPSSSSIFNQNDPWTPTVNFTDFISNETIAGEDLVAWVTAGFLHIPHAEDIPNTVTAGNSVGFFLRPYNFFDEDPSFHSADSIYFREGQDATACEVNPLACLSQTATCAPEIPAFSHGGFAYRDN
Protein B1 has a Km [1] of 10 ± 1.2 µM, a kcat/Km [1] of 1670 M⁻¹ s⁻¹ and a Km [2] of 29.1 ± 4.8 µM. For the same protein, the kcat/Km [2] was 1490 M⁻¹ s⁻¹, the Km [3] was 4.8 ± 13 µM and the kcat/Km [3] was 3040 M⁻¹ s⁻¹. The Km [4] was 31 ± 10 µM, the kcat/Km [4] was 488 M⁻¹ s⁻¹ and the Km [5] was 8.8 ± 2.9 µM. For the same protein, the kcat/Km [5] was 3910 M⁻¹ s⁻¹, the Km [6] was 27.5 ± 9.9 µM and the kcat/Km [6] was 3780 M⁻¹ s⁻¹.

B2: Human SSAO/VAP-1 (Homo sapiens) (protein)
chain: MNQKTILVLLILAVITIFALVCVLLVGRGGDGGEPSQLPHCPSVSPSAQPWTHPGQSQLFADLSREELTAVMRFLTQRLGPGLVDAAQARPSDNCVFSVELQLPPKAAALAHLDRGSPPPAREALAIVFFGRQPQPNVSELVVGPLPHPSYMRDVTVERHGGPLPYHRRPVLFQEYLDIDQMIFNRELPQASGLLHHCCFYKHRGRNLVTMTTAPRGLQSGDRATWFGLYYNISGAGFFLHHVGLELLVNHKALDPARWTIQKVFYQGRYYDSLAQLEAQFEAGLVNVVLIPDNGTGGSWSLKSPVPPGPAPPLQFYPQGPRFSVQGSRVASSLWTFSFGLGAFSGPRIFDVRFQGERLVYEISLQEALAIYGGNSPAAMTTRYVDGGFGMGKYTTPLTRGVDCPYLATYVDWHFLLESQAPKTIRDAFCVFEQNQGLPLRRHHSDLYSHYFGGLAETVLVVRSMSTLLNYDYVWDTVFHPSGAIEIRFYATGYISSAFLFGATGKYGNQVSEHTLGTVHTHSAHFKVDLDVAGLENWVWAEDMVFVPMAVPWSPEHQLQRLQVTRKLLEMEEQAAFLVGSATPRYLYLASNHSNKWGHPRGYRIQMLSFAGEPLPQNSSMARGFSWERYQLAVTQRKEEEPSSSSVFNQNDPWAPTVDFSDFINNETIAGKDLVAWVTAGFLHIPHAEDIPNTVTVGNGVGFFLRPYNFFDEDPSFYSADSIYFRGDQDAGACEVNPLACLPQAAACAPDLPAFSHGGFSHN
In the case of B2, the Km [7] is reported as 1339 ± 140 µM, the Vmax [7] is reported as 0.156 µmol/min/mg and the kcat [7] is reported as 0.22 s⁻¹. The kcat/Km [7] was 168 M⁻¹ s⁻¹, the Km [8] was 647 ± 32 µM and the Vmax [8] was 0.27 µmol/min/mg. For the same protein, the kcat [8] was 0.39 s⁻¹, the kcat/Km [8] was 600 M⁻¹ s⁻¹ and the Km [9] was 2918 ± 1910 µM. It also gave a Vmax [9] of 0.05 µmol/min/mg, a kcat [9] of 0.07 s⁻¹ and a kcat/Km [9] of 25 M⁻¹ s⁻¹. The Km [10] was 2805 ± 613 µM, the Vmax [10] was 0.263 µmol/min/mg and the kcat [10] was 0.38 s⁻¹. It also gave a kcat/Km [10] of 135 M⁻¹ s⁻¹, a Km [11] of 430 ± 110 µM and a Vmax [11] of 0.577 µmol/min/mg. For the same protein, the kcat [11] was 0.83 s⁻¹, the kcat/Km [11] was 1930 M⁻¹ s⁻¹ and the Km [12] was 277 ± 33 µM. It also gave a Vmax [12] of 0.294 µmol/min/mg, a kcat [12] of 0.42 s⁻¹ and a kcat/Km [12] of 1530 M⁻¹ s⁻¹.
